For one molecule, Kd, koff and kon results are on record in patent publication US20230374157A1.

For experiment [1], the target named is His-tagged human EGFR extracellular domain (expressed and purified in-house) (human) (UniProt P00533). The experiment in a line: BLI, antibody on AHC tips, monomeric EGFR ECD in solution, 1:1 fit. A general note: In BLI a coated tip is dipped into the sample, and binding shifts an interference pattern.
For experiment [2], the target named is His-tagged human HER3 extracellular domain (Acro ER3-H5223) (human) (UniProt P21860). The experiment in a line: BLI, antibody on AHC tips, monomeric HER3 ECD in solution, 1:1 fit.

B1: SI-1C4 (duligotuzumab), 2-in-1 bispecific antibody against EGFR and HER3 (bispecific antibody, from a related filing, V domains shown)
VH: EVQLVESGGGLVQPGGSLRLSCAASGFTLSGDWIHWVRQAPGKGLEWVGEISAAGGYTDYADSVKGRFTISADTSKNTAYLQMNSLRAEDTAVYYCARESRVSFEAAMDYWGQGTLVTVSS
VL: DIQMTQSPSSLSASVGDRVTITCRASQNIATDVAWYQQKPGKAPKLLIYSASFLYSGVPSRFSGSGSGTDFTLTISSLQPEDFATYYCQQSEPEPYTFGQGTKVEIKR
For orientation: Kd means the free concentration of one partner at which half of the binding sites on the other are occupied at equilibrium, for simple one-to-one binding. For orientation: koff means the first-order rate constant of dissociation. Usually kon stands for a measure of how fast the partners come together. High values mean fast association, low ones slow association. With B1, in experiment [1], the Kd worked out at 14.6 nM, the koff is 0.00438 s⁻¹ and the association rate constant (kon) stood at 300000 M⁻¹ s⁻¹. In experiment [2], this molecule returned a Kd of 4.29 nM, a koff of 0.000877 s⁻¹ and a kon of 205000 M⁻¹ s⁻¹.
